Results as given in article PMC6170153, “Structures reveal opening of the store-operated calcium channel Orai” (eLife, 2018).

Columns and labels:
[1] = biological target: the molecule itself; test: crystal structure; H206A Orai_(cryst), space group I4_(1), 6.7 Å, 24 subunits (four channels) in the asymmetric unit, 24-fold NCS averaging; crystals grown in 36-38% PEG400, 500 mM NaCl, 100 mM Tris-HCl pH 9.0
[2] = biological target: the molecule itself; test: crystal structure; K163W Orai_(cryst), space group I4_(1), 6.1 Å, MIRAS, 24-fold NCS averaging; crystals grown in 26-28% PEG 400, 150 mM NaCl, 100 mM HEPES pH 7.5
[3] = biological target: the molecule itself; test: crystal structure; WT Orai_(cryst), space group I4_(1), 6.9 Å, MR-SAD, 24-fold NCS averaging; crystals grown in 32-35% PEG 400, 0.1 M potassium phosphate pH 7.5

B1: H206A Orai_(cryst) (natural protein, Drosophila melanogaster, UniProt Q9U6B8 133-341, looked up)
chain: MSQSGEDLHSPTYLSWRKLQLSRAKLKASSKTSALLSGFAMVAMVEVQLDHDTNVPPGMLIAFAICTTLLVAVAMLALMISTCILPNIETVSNLHSISLVHESPHERLHWYIETAWAFSTLLGLILFLLEIAILCWVKFYDLSPPAAWSATVVLIPVMIIFMAFAIHFYRSLVSHKYEVTVSGIRELEMLKEQMEQDHLEHHNNIRNNG
notes: Hexameric channel; The model holds residues 148-327 without 181-191 and 220-239; also called open conformation
In the case of B1, the “stoichiometry N” value [1] is reported as 6.

B2: K163W Orai_(cryst) (natural protein, Drosophila melanogaster, UniProt Q9U6B8 133-341, looked up)
chain: MSQSGEDLHSPTYLSWRKLQLSRAKLKASSWTSALLSGFAMVAMVEVQLDHDTNVPPGMLIAFAICTTLLVAVHMLALMISTCILPNIETVSNLHSISLVHESPHERLHWYIETAWAFSTLLGLILFLLEIAILCWVKFYDLSPPAAWSATVVLIPVMIIFMAFAIHFYRSLVSHKYEVTVSGIRELEMLKEQMEQDHLEHHNNIRNNG
notes: Hexameric channel, solved in two crystal forms (I4_(1) and P4_(2)2_(1)2); also called K163W mutant
B2 was tested, and the “stoichiometry N” value [2] was 6.

B3: WT Orai_(cryst) (natural protein, Drosophila melanogaster, UniProt Q9U6B8 133-341, looked up)
chain: MSQSGEDLHSPTYLSWRKLQLSRAKLKASSKTSALLSGFAMVAMVEVQLDHDTNVPPGMLIAFAICTTLLVAVHMLALMISTCILPNIETVSNLHSISLVHESPHERLHWYIETAWAFSTLLGLILFLLEIAILCWVKFYDLSPPAAWSATVVLIPVMIIFMAFAIHFYRSLVSHKYEVTVSGIRELEMLKEQMEQDHLEHHNNIRNNG
notes: Drosophila melanogaster Orai, amino acids 133-341, with C224S and C283T (made to improve stability); wild-type Pro276 and Pro277; 24 subunits in four channels in the asymmetric unit (24-fold NCS), which makes six a channel; The model holds residues 148-327 without 181-191 and 220-239; also called wild-type (WT) Orai_(cryst); unlatched-closed conformation
B3: binds [3].
